Measured values taken from patent US20030158387.

Columns and labels:
[1] = test system: processed human chemokine PHC-1 (HCC-1[9-74])
[2] = test system: T1, full size human chemokine HCC-1 (residues 1-74)
T1 sequence: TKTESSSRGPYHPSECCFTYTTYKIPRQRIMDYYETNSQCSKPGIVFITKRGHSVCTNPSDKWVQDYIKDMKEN

Substance	activity of 50 nM PHC-1 after incubation with 10 or 100 IU purified urokinase [1]	proteolytic degradation (tryptic digestion with increased incubation time) [1]	proteolytic cleavage (tryptic digestion, enzyme/substrate-ratio (w/w) 1/100, one hour) [2]
urokinase (purified CHOAY urokinase, Sanofi Wintrop; uPA)	No change of activity was observed after an incubation of 90 min at 37 °C		
trypsin		trypsin generated PHC-1 then degrades PHC-1 into inactive fragments when the incubation time is increased	the 74 residue peptide was in part cleaved into smaller fragments. One cleavage product, the newly identified biologically active peptide PHC-1
